Assay: soluble on expression in E. coli; label from the status in PepcDB or PDB records

Sequence	soluble on expression in E. coli
GVTGADGTTTFTLKQDQTTGLKTELTAALDSSSSTKSTLPVVFTVLTSPDSPKAKFWGHMAETATGDDGLIYRRPLLRDENSATTSIGTLVEEGEAWSTFPSGQANDTSINGCGAEYVPTDNELRAIYAHQGSSALHDAIGWPVSRFYISNTVADTFTQTFTYDVVSLKTGDETQMPSSGGALLSCR	not soluble
GVVETPRSALKVTAQPNDVLLGNYVVLSPQTVLKSSKLAPVHPLAEQVKIITHNGRAGGYQVDGYDGRVLLPCGSAIPVPEFQALSESATMVYNEREFVNRKLYHIAVHGPSLNTDEENYEKVRAERTDAEYVFDVDKKCCVKREEASGLVLVGELTNPPFHEFAYEGLKIRPSAPYKTTVVGVFGVPGSGKSAIIKSLVTKHDLVTSGKKENCQEIVNDVKKHRGKGTSRENSDSILLNGCRRAVDILYVDEAFACHSGTLLALIALVKPRSKVVLCGDPKQCGFFNMMQLKVNFNHNICTEVCHKSISRRCTRPVTAIVSTLHYGGKMRTTNPCNKPIIIDTTGQTKPKPGDIVLTCFRGWAKQLQLDYRGHEVMTAAASQGLTRKGVYAVRQKVNENPLYAPASEHVNVLLTRTEDRLVWKTLAGDPWIKVLSNIPQGNFTATLEEWQEEHDKIMKVIEGPAAPVDAFQNKANVCWAKSLVPVLDTAGIRLTAEEWSTIITAFKEDRAYSPVVALNEICTKYYGVDLDSGLFSAPKVSLYYENNHWDNRPGGRMYGFNAATAARLEARHTFLKGQWHTGKQAVIAERKIQPLSVLDNVIPINRRLPHALVAEYKTVKGSRVEWLVNKVRGYHVLLVSEYNLALPRRRVTWLSPLNVTGADRCYDLSLGLPADAGRFDLVFVNIHTEFRIHHYQQCVDHAMKLQMLGGDALRLLKPGGILMRAYGYADKISEAVVSSLSRKFSSARVLRPDCVTSNTEVFLLFSNFDNGKRPSTLHQMNTKLSAVYAGEAMHTAGC	soluble
GYMPPIEHLQNPIDKYASQLISADGKVFGSYAHSGDNRIYTRYNEISPDLIKALIATEDVRFRKHSGIDSKGLFRAVVKRGILNQKSGGGGSTITQQLAKLLYSPRTETKLGRLFQKPIEWVIAVKLERFYTKEEIITMYLNYFDFLYNAVGIKSAAYTYFGKQPADLKIEEAAVLVGMCKNPAYYNPVLHGETERCRGRRNIVLEQMYKAKYITKAECDSLQKLPLVTSFHRITHRDGEAPYFRERLRQVLMAKKPERKNYLAWQDDQYRADSIAWETDPVYGWCNKNKKADGSNYNIYTDGLKIYTTIDLRMQQYAEEAMVKQMKEVLQPIFDKEKRGRSYAPFSRDITSDEQRSILLRAMKQTDRWREMKKAGISESEIRASFNKKRKMQVWNWRGTIDTVMSPLDSIKYLKGILRTGFMAMNPHNGHIKAYVGGINFRNFQYDMVSQGRRQVGSTIKPFLYSLSMLEGISPCDEMLHVSQTLFTESGKAWTPKNTGARRTGEMVSIKWGLQNSSNWVTAYLMGRTSPYTFVRLLRS	not soluble
HETENAWRETEERLAATYQAATIGIAESDADGRLLRVNDAFCTMLGRSREQLLNMTFLDYTHEDDRDEEARCYARQVSGETDTYAIRKRAVKADGTVIYLDVYSSTVRDRTGRFRYGVRVLLDVT	not soluble
HLDGRGAAMMEMAGLAQKGGAVQIHCRIAEKPSDISAIRVAVGEADGVIGGDLVVTAGAKTLGLMSQGRTGAVVNSHDIVTGEFTRNTDFRVPSDRLQVSLQARLQDRVAFLDATELARILMGDSIYSNMMVFGAAWQRGLIPLSAEAIQRAIELNGAAVAQNARAFALGRWAVL	not soluble
HLQTKTAAKTGEGLSESAIHRTFQQLASGFDTIYGGFGQAPKFPMPHMLMYLLRYDHNTGQENALYNVTKTLDSMANGGIYDHIGYGFARYSTDDEWLVPHFEKMLYDNALLLTAYTEAYQVTQNSRYKEICEQIITFIQREMTHEDGSFFSALDADTEGEEGKYYVWSKEEILKTLGDDLGTLYCQVYDITEEGNFEGKNIPNLIHTKREQIKEDAGLTEKELSLKLEDARQQLLKTREERTYPHVDDKVLTSWNALMIAGLAKAAKVYQEPKYLSLAKDAITFIENKLIIDGRVMVRYRDGEVKNKGFIDDYAFLLWAYLDLYEASFDLSYLQKAKKLTDDMISLFWDEEHGGFYFTGHDAEALIVREKEV	not soluble
HMFPARWHNYLQCGQVIKDSNLICFKTPLRPELFAYVTSEEDVWTAEQIVKQNPSIGAIIDLTNTSKYYDGVHFLRAGLLYKKIQVPGQTLPPESIVQEFIDTVKEFTEKCPGMLVGVHCTHGINRTGYMVCRYLMHTLGIAPQEAIDRFEKARGHKIERQNYVQDLLI	soluble
HMSNPLGELVKALEKLSFKPSDVRIYSLLLERGGMRVSEIARELDLSARFVRDRLKVLLKRGFVRREIVEKGWVGYIYSAEKPEKVLKEFKSSILGEIERIEKMFTDGS	soluble
HPISLMRAPVNEIMVGLGYYEVMPFTLTSEKVNFENMCREKTDDVTYVLHPISEDQTMLRTTVLPNLLEILALNQHRELPQKIFEFGEVVSNETTGQHVAAVSIHPQANFTEVYEVVDAFMREMMLSYEVKESKDPAFLEGRRADVYVNGKKLGVFGELQPEVISKFSLGYAVVGFELDLNDLIGKN	not soluble
HTDPGDVVIEELFNRIPETSVWNENERVLSNANHLVSTALWRNEQSFRVESELGERPRTLVRGPVLRDDGSYICLEATDQETGEPLEVHVPYFTERPPSNAIKQLSEQVLRLRLLRGIKNQRQAKAYLRFIFPIDLVKDPKKRKMIRVRLDERDMWVLSRFFLYPRMQSNLHILGDVLLSHSSTHKSLVHHARLQLTLQLIRLAASLQHYGLVHADFQVRNILLDQRGGVFLTGFEHLVRDGASAVSPIGRGFAPPETTAERMLPYRQHHPTLMTFPFDTWTLGLAIYWIWCADLPNTEDAELGGIEWIYRRCKNIPQPVRALLEGFLRYSKEDRLLPLQAMETSEYEQLRTELSAVLPLYQTDGEPA	soluble
IAAGGSHVEAAPQEEWKKHFIHTGELGSAEFASVMSHTTSAMKSVFEQVNAPYSGMDPKALEDAINAVDLDNKNAPLKSVIDDVAELVAKNAIFTQHPDCIAHLHTPPLMPAVAAEAMIAALNQSMDSWDQASSATYVEQKVVNWLCDKYDLSEKADGIFTSGGTQSNQMGLMLARDWIADKLSGHSIQKLGLPDYADKLRIVCSKKSHFTVQKSASWMGLGEKAVMTVDANADGTMDITKLDEVIAQAKAEGLIPFAIVGTAGTTDHGAIDDLDFIADMAVKHDMWMHVDGAYGGALILSSHKSRLKGVERAHSISVDFHKLFYQTISCGALLVNDKSNFKFLLHHADYLNREHDELPNLVDKSIATTKRFDALKVFMTMQNVGPKALGDMYDHLLAQTLEVADMIRTNDQFELLAEPSLSTVLFRATHETADLDELNKALRLEALTRGIAVLGETIVDGKTALKFTILNPCLTTSDFESLLSKINMLAVELV	soluble
IATGIPTGFKDLDDLTNGLRGGQMIIVAARPGVGKSTIALDFMRSASIKNNMASVIFSLEMSKSEIVMRLLSAETEIRLADMRGGKMDETAWEKMVQKLDKVAQAPLFIDDSANLTMMEIRSKARKLKQKHDLKMIVVDYLQLMSSGKRVESRQQEVSEFSRQLKLLAKELDVPLIAISQLNRGPESRTDKRPQLADL	not soluble
IEAENHKVTDKIKNAQPFLVDVVPAKSVIPELNDDAQKTLLHAGPPIQWSEMTGPMKGACIGAALFERWADNEEDALKIFEAGEVRFIPCHHVKAVGPMGGITSGNMPVFVVENRLEGNEAYCILNEGIGKVLRFGAYSQEVVDRLDWIKDVLGPTIAKALKLSEEGLNLNVLIARSITMGDEFHQRNIAASLNFLKELSPLIIKTDIPEDQKYEVIKFLADTDQFFLNVMMATGKAIVDGARKDTNGTIVTTMTRNGVNFGVRIAETGDQWHTAPVNTPKGLYFTGFSEEDGNPDVGDSAITETVGVGAMAMVAAPGVTRFVGAGGFEDALATSNEMAKICEGNNPTFSIPTWDFQGTCLGIDIRKVVELGITPIINTGIAHKNAGVGQIGAGTVRAPLGCFEKALEAYAEKLGITVE	not soluble
IEERMNEYFNWLKQNYIFKELDSSTEITTPFKNHLNDFIRIYADTLPNNEICLSDDGLTINELEMLGIDINTKTRTKLIQNILNQFNLKLVDKEITADVKNESFAQSKHNLIQGILKIYDLTLTTKSNVTNIFYEEVFEFLYDQKIRGLAQVSVSGESGLKYSIDYIVSETKSQPEKLVNFTNNLDFNKITNEAYIYRDIKPNRPSRNKLEPIMLIIVNDVDHPINERAQTVAEHENLEILKWSNKSKIIETL	not soluble
IEGIPVYLLDKESGPFSFFHWIFIYPQAHPQNELSEILTHEGTHARQRHSIDVIISELMCIACWFNPFMWLMKREVRNNLEYMADNRVLEAGHDSKSYQYHLLGLAHQKSAITLSNSFNVLPLKNRITMM	not soluble
IEYETHFFNEVTYLVDYLKVKALMMIPKNKKDIKRIVIYLRGGKGQVGRVRAARLMQFANEYTLVIGPYYRGNNGSEGRDEFYRGDLNDVTHLIRLLNQNYPSAFIHMVGFSRGGLQGLLTFNDLPVDSYMIWGGVSDIHLMYEERVDLRGMLRRMVGHPKKDAKAYKSRDAMQFIKKDSPPILIIHGGKDIQVGIHQAYDLEKKLKSKGIYYQTYYQLDEGHVPRPPAMRDVIRYIHQWMNNVENKN	not soluble
IGDWGYSVSANLTTIKNKVKSLVQDGYSIIAGDKQQSYTMAGYPIGFFYGYKVAGVYQSQADIDASPENTLATVTPGDLKFADVNRDGKITPEDRTMIGNPTPDFTYGLSLGVNYKNWSLGIDMMGQHGNEIFRTWDNYNFAQFNYLSQRMDRWHGEGTSNSQPLLNSKHSINNLNSEYYIEDGSFFRIRNVQLAYSFDKALLAKIRLQALKVYVNIQNLKTWKHNTGYTPELGGSATTFGVDDGSYPVPAVYTFGINLTF	not soluble
IGKEKAEVELLQVDPELQAEIIATHNIALQAAVQVEEKKAREAATEAVKEVVIGEYEARYAEHEEYDRIMRDVAEILEQMEHAEVRRLITEDKIRPDGRRVDEIRP	not soluble
IIGGNEVTPHSRPYMVLLSLDRKTICAGALIAKDWVLTAAHCNLNKRSQVILGAHSITREEPTKQIMLVKKEFPYPCYDPATREGDLKLLQLTEKAKINKYVTILHLPKKGDDVKPGTMCQVAGWGRTHNSASWSDTLREVNITIIDRKVCNDRNHYNFNPVIGMNMVCAGSLRGGRDSCNGDSGSPLLCEGVFRGVTSFGLENKCGDPRGPGVYILLSKKHLNWIIMTIKGAV	soluble
IIHEVQKEEACGNLTLQHHMLEPVQRIPRYELLLKDYLLKLPHGSPDSKDAQKSLELIATAAEHSNAAIRKMERMHKLLKVYELLGGEEDIVSPTKELIKEGHILKLSAKNGTTQDRYLILFNDRLLYCVPRLRLLGQKFSVRARIDVDGMELKESSNLNLPRTFLVSGKQRSLELQARTEEEKKDWVQAINSTLLKHEQTLETFKLLNSTNREDEDTPPNSPNVDLGKRAPTPIREKEVTMCMRCQEPFNSITKRRHHCKACGHVVCGKCSEFRARLVYDNNRSNRVCTDCYVALHGVPGSSPACSQHTPQRRRSILEKQASVAAENSVICSFLHYMEKGGKGWHKAWFVVPENEPLVLYIYGAPQDVKAQRSLPLIGFEVGPPEAGERPDRRHVFKITQSHLSWYFSPETEELQRRWMAVLGRAGRGDTFCPGPTLSEDREMEEAPVAALGATAEPPESPQTRDKT	soluble
IKVILITGMPGSGKSEFAKLLKERGAKVIVMSDVVRKRYSIEAKPGERLMDFAKRLREIYGDGVVARLCVEELGTSNHDLVVFDGVRSLAEVEEFKRLLGDSVYIVAVHSPPKIRYKRMIERLRSDDSKEISELIRRDREELKLGIGEVIAMADYIITNDSNYEEFKRRCEEVTDRVLK	soluble

Source: the DeepSol protein solubility set
